Target: BRCA1 protein (mouse) (mouse) (UniProt P48754)
Test: cell-based or functional assay

Chain of UniProt P48754 (P48754 whole entry): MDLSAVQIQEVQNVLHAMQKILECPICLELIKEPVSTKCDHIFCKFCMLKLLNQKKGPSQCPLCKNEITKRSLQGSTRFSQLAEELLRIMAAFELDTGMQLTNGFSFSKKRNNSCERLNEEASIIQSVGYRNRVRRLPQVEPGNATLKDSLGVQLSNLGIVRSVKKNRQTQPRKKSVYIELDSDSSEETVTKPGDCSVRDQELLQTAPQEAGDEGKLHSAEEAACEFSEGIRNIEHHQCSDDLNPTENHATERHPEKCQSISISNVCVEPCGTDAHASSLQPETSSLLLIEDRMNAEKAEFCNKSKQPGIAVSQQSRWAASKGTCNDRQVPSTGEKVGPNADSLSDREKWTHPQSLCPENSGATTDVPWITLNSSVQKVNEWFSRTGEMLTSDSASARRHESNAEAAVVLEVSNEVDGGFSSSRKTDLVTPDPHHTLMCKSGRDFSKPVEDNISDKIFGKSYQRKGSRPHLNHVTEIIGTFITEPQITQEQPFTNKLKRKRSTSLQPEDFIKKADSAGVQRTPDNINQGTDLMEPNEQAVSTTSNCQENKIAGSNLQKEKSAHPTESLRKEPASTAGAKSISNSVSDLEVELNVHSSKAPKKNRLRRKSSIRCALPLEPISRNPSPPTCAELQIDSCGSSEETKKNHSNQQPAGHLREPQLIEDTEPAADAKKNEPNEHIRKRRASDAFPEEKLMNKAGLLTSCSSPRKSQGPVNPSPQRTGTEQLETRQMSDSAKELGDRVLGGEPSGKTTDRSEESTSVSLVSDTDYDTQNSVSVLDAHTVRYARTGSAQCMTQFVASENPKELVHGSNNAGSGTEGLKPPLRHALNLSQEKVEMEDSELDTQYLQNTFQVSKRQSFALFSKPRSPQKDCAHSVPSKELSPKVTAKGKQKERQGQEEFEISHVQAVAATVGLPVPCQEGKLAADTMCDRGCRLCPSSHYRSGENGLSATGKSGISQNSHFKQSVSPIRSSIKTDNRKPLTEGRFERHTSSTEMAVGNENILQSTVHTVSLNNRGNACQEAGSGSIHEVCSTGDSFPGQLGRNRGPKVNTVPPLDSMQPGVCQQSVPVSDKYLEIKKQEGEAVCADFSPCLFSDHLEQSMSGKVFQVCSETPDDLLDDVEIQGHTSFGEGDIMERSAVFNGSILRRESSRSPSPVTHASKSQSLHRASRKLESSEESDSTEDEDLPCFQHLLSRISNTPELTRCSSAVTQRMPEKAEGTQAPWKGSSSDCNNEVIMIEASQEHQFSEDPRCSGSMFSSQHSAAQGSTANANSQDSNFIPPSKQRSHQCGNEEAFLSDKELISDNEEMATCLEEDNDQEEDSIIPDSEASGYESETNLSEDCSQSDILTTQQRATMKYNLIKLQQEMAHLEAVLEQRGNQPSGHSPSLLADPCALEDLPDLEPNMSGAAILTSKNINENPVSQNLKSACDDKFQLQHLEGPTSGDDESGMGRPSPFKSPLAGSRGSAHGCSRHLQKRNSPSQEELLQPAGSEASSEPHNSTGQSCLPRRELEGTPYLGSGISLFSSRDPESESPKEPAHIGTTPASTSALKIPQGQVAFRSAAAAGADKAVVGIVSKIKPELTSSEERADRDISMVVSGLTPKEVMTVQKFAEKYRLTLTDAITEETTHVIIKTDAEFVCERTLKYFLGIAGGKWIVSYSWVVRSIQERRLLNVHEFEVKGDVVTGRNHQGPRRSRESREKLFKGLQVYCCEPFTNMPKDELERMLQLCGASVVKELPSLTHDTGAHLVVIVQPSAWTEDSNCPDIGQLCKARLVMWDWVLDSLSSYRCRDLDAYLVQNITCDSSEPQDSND

- co-localization of anti-FANCD2 foci with anti-BRCA1 staining (20 pachytene nuclei): 65%
Substance: FANCD2 protein (mouse) (from UniProt Q80V62 1-1450)

Source: patent US20110257036A1
